Measured values: article PMC6395645, “Anopheline antiplatelet protein from mosquito saliva regulates blood feeding behavior” (Scientific Reports, 2019)

Molecular target: T1, Anopheline antiplatelet protein (AAPP) (Anopheles stephensi (endogenous in …, UniProt Q7YT37))
T1 construct: Anopheline antiplatelet protein (AAPP), predominant saliva protein of Anopheles stephensi; acidic secretory protein, Mr = 37 kDa on immunoblots; Same endogenous protein in saliva and in salivary gland lysates; in TG mosquitoes it is present together with mDsRed-8H7scFv; source: endogenous, Anopheles stephensi saliva and salivary gland lysates/homogenates (WT and TG mosquitoes)
Experiment: pull-down; Ni-NTA beads added to lysates (Cellytic M) of dissected salivary glands of TG and WT mosquitoes, 1 h on ice, washed with PBS; His-tagged mDsRed-8H7scFv held on the resin; eluate blotted with anti-AAPP mAb 28B8 and anti-mDsRed polyclonal Ab
Settings: partners not purified

T1 sequence (Q7YT37 20-269): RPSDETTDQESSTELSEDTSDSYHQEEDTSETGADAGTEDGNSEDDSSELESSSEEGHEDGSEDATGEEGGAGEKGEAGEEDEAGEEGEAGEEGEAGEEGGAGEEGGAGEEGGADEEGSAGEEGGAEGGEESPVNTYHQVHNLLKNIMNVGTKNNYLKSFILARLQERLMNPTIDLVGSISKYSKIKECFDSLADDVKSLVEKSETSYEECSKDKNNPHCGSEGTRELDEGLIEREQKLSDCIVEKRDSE

B1: mDsRed-8H7scFv (scFv, V domains shown)
VH: QVQLQQPGAELVRPGASVKLSCKASGYTFTSYWMNWVKQRPGQGLEWIGLIDPSDSETHYNQMFKDKATLTVDKSSSTAYMQLSSLTSEDSAVYYCARGGTYWGQGTTLTVSS
VL: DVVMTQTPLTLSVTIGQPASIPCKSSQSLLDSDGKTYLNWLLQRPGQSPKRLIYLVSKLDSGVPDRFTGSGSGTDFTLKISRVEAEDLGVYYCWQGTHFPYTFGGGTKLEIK
notes: VH of the anti-AAPP mAb 8H7; hinge/linker, printed as (Gly4Ser)3; VL of the anti-AAPP mAb 8H7; 54.6 kDa on blots; 8H7scFv is fused to monomeric DsRed through Gly4Ser x 3 linkers; The secretion signal is not described; also called anti-AAPP scFv; anti-AAPP antibody single-chain fragment; source: transgenic Anopheles stephensi (TG-03, TG-30, TG-37), expressed in salivary glands under the aapp …
- binding result: binds
